Source: US20240166738A1 (Alector, published 2024)

B1: TM-8 (antibody, V domains shown)
VH: QIQLVQSGPELKKPGETVKISCKASGYTFTDYPMHWVKQAPGKGFKWMGVIYTDTGEPKYAEVFKGRFAFSLETSASTAYLQINNLKNEDTATYFCVRRLAYWGQGTLVTVSA
VL: DIKMTQSPSSMYASLGERVTITCKASQDINSYLSWFQQKPGKSPKTLIFRANRLVDGVPSRFSGSGSGQDYSLTISSLEYEDMGIYYCLQYDEFPLTFGAGTKLEMK
notes: mouse hybridoma mAb
B2: TM-71 (antibody, V domains shown)
VH: EVQLVESGGALVKPGGSLKLSCAASGFTFSNYAMSWVRQTPEKRLEWVATIGYGGSYSYYPDSVKGRFTISRDNAKNTLYLQMSSLRSEDTALYYCARQDSNYEGVWFAYWGQGTLVTVSS
VL: DIVMTQAAPSVPVTPGESVSISCRSSKSLLHTNGNTYLFWFIQRPGQSPHLLIYRKSNLASGVPDRFSGSGSGTAFTLRISRVEAEDVGVYYCMQHLEYPFTFGSGTKLEIK
notes: mouse hybridoma mAb
B3: TM-52 (antibody, V domains shown)
VH: QVQLQQPGAELVKPGASVKLSCKASGYTFTNYWMHWVKQRPGQGLDWIGNIDPSDSETHYNQKFKDKATLTVDKVSSTAYMQLSSLTSEDSAVYYCARRGYYGRSPFAYWGQGTLVTVSA
VL: ENVLTQSPAIMSASPGEKVTMTCSASSSVSYMHWYQQKSNTSPKLWIYDTSKLASGVPGRFSGSGSGNSYSLTISSAEAEDVATYYCFQGSGYPLTFGAGTKLELK
notes: mouse hybridoma mAb

Key:
human TMEM106B = human TMEM106B (human, UniProt Q9NUM4 2-274); experiment: cell-based or functional assay; note: test concentration or dose not given here
[1] = biological target: T1, GST-TMEM106B (truncated, comprising amino acids 122-210 of SEQ ID NO:1) (human, UniProt Q9NUM4 122-210); experiment: pre-mix epitope binning, antibody immobilized on chip array
T1 construct: GST written first by the name only; also called truncated GST-TMEM106B fusion protein; GST-TMEM106B polypeptide fusion; not shown: GST fusion partner

Row | Binder | % Protection from CPE (human TMEM106B) [%] | binding result [1]
1 | B1 | 3.8 | no binding (tested: 55 nM antigen (2 ug/mL))
2 | B2 | 3.2 | no binding (tested: 55 nM antigen (2 ug/mL))
3 | B3 | 3.6 | no binding (tested: 55 nM antigen (2 ug/mL))
